Consider 21 molecules from patent publication US20250218531A1 (ABSCI, published 2025).

Usually Kd stands for a measure of binding affinity in units of concentration. Read a low Kd as a tighter complex.

“And” between values parts separate entries of the source, which are not always exact repeats. Equal entries are not always repeated.

B1: Trastuzumab HCDR3 variant ARYRHWYYDYDY (Fab, V domains shown)
VH: EVQLVESGGGLVQPGGSLRLSCAASGFNIKDTYIHWVRQAPGKGLEWVARIYPTNGYTRYADSVKGRFTISADTSKNTAYLQMNSLRAEDTAVYYCARYRHWYYDYDYWGQGTLVTVSS
VL: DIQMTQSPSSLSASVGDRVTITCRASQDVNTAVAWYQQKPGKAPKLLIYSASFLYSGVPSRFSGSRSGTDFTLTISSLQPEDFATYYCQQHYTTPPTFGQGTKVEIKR
B2: Trastuzumab HCDR3 variant ARYTFGAYYYSD (Fab, V domains shown)
VH: EVQLVESGGGLVQPGGSLRLSCAASGFNIKDTYIHWVRQAPGKGLEWVARIYPTNGYTRYADSVKGRFTISADTSKNTAYLQMNSLRAEDTAVYYCARYTFGAYYYSDWGQGTLVTVSS
VL: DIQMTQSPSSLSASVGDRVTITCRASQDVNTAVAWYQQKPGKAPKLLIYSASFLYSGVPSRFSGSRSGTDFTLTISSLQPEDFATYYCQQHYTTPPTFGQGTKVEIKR
B3: Trastuzumab HCDR3 variant ARYWMGVYEFDY (Fab, V domains shown)
VH: EVQLVESGGGLVQPGGSLRLSCAASGFNIKDTYIHWVRQAPGKGLEWVARIYPTNGYTRYADSVKGRFTISADTSKNTAYLQMNSLRAEDTAVYYCARYWMGVYEFDYWGQGTLVTVSS
VL: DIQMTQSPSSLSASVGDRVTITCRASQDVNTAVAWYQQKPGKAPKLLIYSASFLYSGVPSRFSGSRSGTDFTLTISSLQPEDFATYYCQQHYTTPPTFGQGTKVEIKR
B4: Trastuzumab HCDR3 variant AVSADIMYGVSV (Fab, V domains shown)
VH: EVQLVESGGGLVQPGGSLRLSCAASGFNIKDTYIHWVRQAPGKGLEWVARIYPTNGYTRYADSVKGRFTISADTSKNTAYLQMNSLRAEDTAVYYCAVSADIMYGVSVWGQGTLVTVSS
VL: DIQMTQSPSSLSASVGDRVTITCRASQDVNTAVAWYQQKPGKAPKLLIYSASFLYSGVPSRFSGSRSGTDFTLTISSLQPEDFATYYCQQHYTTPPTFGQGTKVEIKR
B5: Trastuzumab HCDR3 variant ATYSPGAYYYGP (Fab, V domains shown)
VH: EVQLVESGGGLVQPGGSLRLSCAASGFNIKDTYIHWVRQAPGKGLEWVARIYPTNGYTRYADSVKGRFTISADTSKNTAYLQMNSLRAEDTAVYYCATYSPGAYYYGPWGQGTLVTVSS
VL: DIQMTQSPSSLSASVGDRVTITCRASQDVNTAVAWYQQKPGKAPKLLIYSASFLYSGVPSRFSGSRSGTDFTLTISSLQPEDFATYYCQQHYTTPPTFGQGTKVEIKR
B6: Trastuzumab HCDR3 variant AVYSPDFYYLGY (Fab, V domains shown)
VH: EVQLVESGGGLVQPGGSLRLSCAASGFNIKDTYIHWVRQAPGKGLEWVARIYPTNGYTRYADSVKGRFTISADTSKNTAYLQMNSLRAEDTAVYYCAVYSPDFYYLGYWGQGTLVTVSS
VL: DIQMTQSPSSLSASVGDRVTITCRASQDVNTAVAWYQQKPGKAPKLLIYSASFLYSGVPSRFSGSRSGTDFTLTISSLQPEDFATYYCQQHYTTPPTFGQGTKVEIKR
B7: Trastuzumab HCDR3 variant STYARDYYHFGS (Fab, V domains shown)
VH: EVQLVESGGGLVQPGGSLRLSCAASGFNIKDTYIHWVRQAPGKGLEWVARIYPTNGYTRYADSVKGRFTISADTSKNTAYLQMNSLRAEDTAVYYCSTYARDYYHFGSWGQGTLVTVSS
VL: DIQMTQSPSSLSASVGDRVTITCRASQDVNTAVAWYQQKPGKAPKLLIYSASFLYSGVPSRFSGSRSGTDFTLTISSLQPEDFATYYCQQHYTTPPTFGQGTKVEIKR
B8: Trastuzumab HCDR3 variant ATWHYGGYFMSG (Fab, V domains shown)
VH: EVQLVESGGGLVQPGGSLRLSCAASGFNIKDTYIHWVRQAPGKGLEWVARIYPTNGYTRYADSVKGRFTISADTSKNTAYLQMNSLRAEDTAVYYCATWHYGGYFMSGWGQGTLVTVSS
VL: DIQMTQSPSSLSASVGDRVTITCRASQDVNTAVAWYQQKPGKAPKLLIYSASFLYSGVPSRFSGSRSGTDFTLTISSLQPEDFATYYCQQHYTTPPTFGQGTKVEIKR
B9: Trastuzumab HCDR3 variant TRFRSFFYNFDY (Fab, V domains shown)
VH: EVQLVESGGGLVQPGGSLRLSCAASGFNIKDTYIHWVRQAPGKGLEWVARIYPTNGYTRYADSVKGRFTISADTSKNTAYLQMNSLRAEDTAVYYCTRFRSFFYNFDYWGQGTLVTVSS
VL: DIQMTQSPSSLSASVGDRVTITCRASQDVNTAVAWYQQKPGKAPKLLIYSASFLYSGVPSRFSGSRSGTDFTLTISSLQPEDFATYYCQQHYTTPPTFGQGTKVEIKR
B10: Trastuzumab HCDR3 variant TRYGGGYYYFDY (Fab, V domains shown)
VH: EVQLVESGGGLVQPGGSLRLSCAASGFNIKDTYIHWVRQAPGKGLEWVARIYPTNGYTRYADSVKGRFTISADTSKNTAYLQMNSLRAEDTAVYYCTRYGGGYYYFDYWGQGTLVTVSS
VL: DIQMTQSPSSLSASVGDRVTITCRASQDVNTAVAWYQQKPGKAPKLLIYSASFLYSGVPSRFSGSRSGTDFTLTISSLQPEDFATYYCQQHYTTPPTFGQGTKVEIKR
B11: Trastuzumab HCDR3 variant ATYGYGYYYFDY (Fab, V domains shown)
VH: EVQLVESGGGLVQPGGSLRLSCAASGFNIKDTYIHWVRQAPGKGLEWVARIYPTNGYTRYADSVKGRFTISADTSKNTAYLQMNSLRAEDTAVYYCATYGYGYYYFDYWGQGTLVTVSS
VL: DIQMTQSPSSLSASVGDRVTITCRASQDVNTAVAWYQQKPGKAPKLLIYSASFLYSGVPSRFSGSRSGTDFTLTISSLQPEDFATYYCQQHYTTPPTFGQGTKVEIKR
B12: Trastuzumab HCDR3 variant ATYSFGAYYYVF (Fab, V domains shown)
VH: EVQLVESGGGLVQPGGSLRLSCAASGFNIKDTYIHWVRQAPGKGLEWVARIYPTNGYTRYADSVKGRFTISADTSKNTAYLQMNSLRAEDTAVYYCATYSFGAYYYVFWGQGTLVTVSS
VL: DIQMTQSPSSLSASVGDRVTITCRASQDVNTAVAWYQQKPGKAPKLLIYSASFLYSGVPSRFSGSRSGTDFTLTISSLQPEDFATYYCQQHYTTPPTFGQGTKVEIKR
B13: Trastuzumab HCDR3 variant TRYGYGYYYFDY (Fab, V domains shown)
VH: EVQLVESGGGLVQPGGSLRLSCAASGFNIKDTYIHWVRQAPGKGLEWVARIYPTNGYTRYADSVKGRFTISADTSKNTAYLQMNSLRAEDTAVYYCTRYGYGYYYFDYWGQGTLVTVSS
VL: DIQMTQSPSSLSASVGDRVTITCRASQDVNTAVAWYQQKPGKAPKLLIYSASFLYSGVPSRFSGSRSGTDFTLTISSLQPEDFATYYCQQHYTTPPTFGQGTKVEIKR
B14: Trastuzumab HCDR3 variant TRNSFGFYAMDY (Fab, V domains shown)
VH: EVQLVESGGGLVQPGGSLRLSCAASGFNIKDTYIHWVRQAPGKGLEWVARIYPTNGYTRYADSVKGRFTISADTSKNTAYLQMNSLRAEDTAVYYCTRNSFGFYAMDYWGQGTLVTVSS
VL: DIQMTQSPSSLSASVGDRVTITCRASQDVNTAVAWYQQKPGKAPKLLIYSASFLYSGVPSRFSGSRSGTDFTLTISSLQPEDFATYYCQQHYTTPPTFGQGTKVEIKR
B15: Trastuzumab HCDR3 variant ATYGRDYYHFAS (Fab, V domains shown)
VH: EVQLVESGGGLVQPGGSLRLSCAASGFNIKDTYIHWVRQAPGKGLEWVARIYPTNGYTRYADSVKGRFTISADTSKNTAYLQMNSLRAEDTAVYYCATYGRDYYHFASWGQGTLVTVSS
VL: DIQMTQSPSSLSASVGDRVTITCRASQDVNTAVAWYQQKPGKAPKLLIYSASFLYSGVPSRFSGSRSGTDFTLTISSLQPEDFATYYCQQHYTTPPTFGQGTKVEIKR
B16: Trastuzumab HCDR3 variant ARYYYGFYYFDY (Fab, V domains shown)
VH: EVQLVESGGGLVQPGGSLRLSCAASGFNIKDTYIHWVRQAPGKGLEWVARIYPTNGYTRYADSVKGRFTISADTSKNTAYLQMNSLRAEDTAVYYCARYYYGFYYFDYWGQGTLVTVSS
VL: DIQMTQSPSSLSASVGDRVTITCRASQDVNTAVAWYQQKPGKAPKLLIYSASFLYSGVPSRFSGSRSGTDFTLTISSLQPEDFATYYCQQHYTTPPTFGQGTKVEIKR
B17: Trastuzumab HCDR3 variant ARYYYYSYAMDY (Fab, V domains shown)
VH: EVQLVESGGGLVQPGGSLRLSCAASGFNIKDTYIHWVRQAPGKGLEWVARIYPTNGYTRYADSVKGRFTISADTSKNTAYLQMNSLRAEDTAVYYCARYYYYSYAMDYWGQGTLVTVSS
VL: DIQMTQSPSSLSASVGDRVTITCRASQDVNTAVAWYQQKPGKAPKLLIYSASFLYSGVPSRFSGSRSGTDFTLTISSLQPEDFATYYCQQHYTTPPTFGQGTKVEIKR
B18: Trastuzumab HCDR3 variant TRYGAPYFYFDY (Fab, V domains shown)
VH: EVQLVESGGGLVQPGGSLRLSCAASGFNIKDTYIHWVRQAPGKGLEWVARIYPTNGYTRYADSVKGRFTISADTSKNTAYLQMNSLRAEDTAVYYCTRYGAPYFYFDYWGQGTLVTVSS
VL: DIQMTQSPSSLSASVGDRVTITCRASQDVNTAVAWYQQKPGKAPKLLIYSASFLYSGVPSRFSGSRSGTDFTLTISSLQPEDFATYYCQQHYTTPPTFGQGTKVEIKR
B19: Trastuzumab HCDR3 variant TRFLIGSYYYDY (Fab, V domains shown)
VH: EVQLVESGGGLVQPGGSLRLSCAASGFNIKDTYIHWVRQAPGKGLEWVARIYPTNGYTRYADSVKGRFTISADTSKNTAYLQMNSLRAEDTAVYYCTRFLIGSYYYDYWGQGTLVTVSS
VL: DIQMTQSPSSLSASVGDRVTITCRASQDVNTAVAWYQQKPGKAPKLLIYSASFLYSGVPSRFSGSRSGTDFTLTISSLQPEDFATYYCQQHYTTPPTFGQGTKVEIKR
B20: Trastuzumab HCDR3 variant TRYGSYYYYFDY (Fab, V domains shown)
VH: EVQLVESGGGLVQPGGSLRLSCAASGFNIKDTYIHWVRQAPGKGLEWVARIYPTNGYTRYADSVKGRFTISADTSKNTAYLQMNSLRAEDTAVYYCTRYGSYYYYFDYWGQGTLVTVSS
VL: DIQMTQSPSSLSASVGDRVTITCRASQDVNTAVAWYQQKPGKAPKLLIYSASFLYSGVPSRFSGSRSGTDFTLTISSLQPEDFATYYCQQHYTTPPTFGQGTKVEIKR
B21: Trastuzumab HCDR3 variant ATWYGGNYHMYP (Fab, V domains shown)
VH: EVQLVESGGGLVQPGGSLRLSCAASGFNIKDTYIHWVRQAPGKGLEWVARIYPTNGYTRYADSVKGRFTISADTSKNTAYLQMNSLRAEDTAVYYCATWYGGNYHMYPWGQGTLVTVSS
VL: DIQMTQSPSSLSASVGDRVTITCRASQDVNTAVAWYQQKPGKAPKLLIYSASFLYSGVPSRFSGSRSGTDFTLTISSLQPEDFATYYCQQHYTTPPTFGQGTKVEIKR

For the assay, the target named is T1, HER2 (human epidermal growth factor receptor 2) (human, UniProt P04626 23-629).
T1 construct: also called Antigen: HER2
The experiment in a line: SPR. For orientation: In SPR one partner is held on a chip, and binding of the other changes the refractive index at the surface.
With B1, binding was put at a Kd of 6.15 nM and the “log(KD (M))” value is -8.21.
The matching figures for B2: 10.9 nM and -7.96.
For the molecule B3, the Kd was 21.7 nM and the “log(KD (M))” value is -7.66.
On to B4, for which the equilibrium dissociation constant (Kd) was determined as 22.9 nM and the “log(KD (M))” value was -7.64.
As to B5, the Kd is 17.3 nM and 17.2 nM; the “log(KD (M))” value is -7.76.
Turning to B6, the Kd came to 2.06 nM and the “log(KD (M))” value is -8.69.
For B7, the Kd worked out at 12.6 nM and the “log(KD (M))” value was -7.9.
Turning to B8, the Kd was 22.5 nM and 22.4 nM; the “log(KD (M))” value is -7.65.
In the case of B9, the Kd came to 5.4 nM and the “log(KD (M))” value was -8.27.
With B10, binding was put at a Kd of 3.59 nM and the “log(KD (M))” value is -8.45.
Take B11: binding was put at a Kd of 15.5 nM and the “log(KD (M))” value is -7.81.
As for B12, binding was put at a Kd of 4.73 nM and the “log(KD (M))” value is -8.33.
The matching figures for B13: 2.73 nM and -8.56.
Regarding B14, the Kd was 19 nM and the “log(KD (M))” value is -7.72.
Consider B15, for which the Kd came to 7.55 nM and the “log(KD (M))” value was -8.12.
The matching figures for B16: 1.21 nM and -8.92.
Turning to B17, the dissociation constant Kd was 6.9 nM and the “log(KD (M))” value is -8.16.
Consider B18, for which binding was characterised by a dissociation constant (Kd) of 18 nM and the “log(KD (M))” value was -7.75.
For B19, in that order: 11.6 nM and -7.93.
The matching figures for B20: 3.18 nM and -8.5.
The matching figures for B21: 11.2 nM and -7.95.
